Laboratory results published in article PMC10934782, “Electrochemical Sensors Based on Self-Assembling Peptide/Carbon Nanotube Nanocomposites for Sensitive Detection of Bisphenol A” (Sensors (Basel, Switzerland), 2024).

Target: the molecule itself
Assay: negative-stain TEM + turbidity + circular dichroism + rheology; Z23 alone (no MWCNTs) in PBS, assembly triggered by adding 10x PBS to the aqueous peptide solution; room temperature (rheology 1 wt% in PBS at 25 °C); turbidity at 313 nm

B1: cationic amphiphilic self-assembling peptide (SAP) Z23 (peptide)
peptide: Ac-KFKFQFKFK-NH2
notes: Designed self-assembling peptide; forms nanofibers and a hydrogel in PBS; source: synthetic peptide; bought: Shanghai Top-peptide Biotechnology Co. Ltd. (purity > 95%)
Does B1 bind?
Result: binds
